Consider 4 molecules from PMC5459902 (Scientific Reports, 2017).

The test system of data set [1] is CC(C)[C@H](NC[C@@]1(O)OC[C@@H](O)[C@@H](O)[C@@H]1O)C(=O)O. Put plainly: H2O2 formation, peroxidase-coupled 4-AA/TOOS spectrophotometric assay. To be noted: oxidase activity, O2 as electron acceptor, 10 mM potassium phosphate pH 7.0, 298 K, 25.0 °C. In kind it is biochemical, Parastagonospora nodorum.
For data set [2], the target named is T1, PnFPOX (Parastagonospora nodorum, UniProt Q0UIL6).
T1 construct: gene SNOG_08398; His-tagged, pET22b (NdeI/XhoI), E. coli BL21(DE3); HisTrap purified; 49 kDa on SDS-PAGE
T1 sequence (Q0UIL6 1-437): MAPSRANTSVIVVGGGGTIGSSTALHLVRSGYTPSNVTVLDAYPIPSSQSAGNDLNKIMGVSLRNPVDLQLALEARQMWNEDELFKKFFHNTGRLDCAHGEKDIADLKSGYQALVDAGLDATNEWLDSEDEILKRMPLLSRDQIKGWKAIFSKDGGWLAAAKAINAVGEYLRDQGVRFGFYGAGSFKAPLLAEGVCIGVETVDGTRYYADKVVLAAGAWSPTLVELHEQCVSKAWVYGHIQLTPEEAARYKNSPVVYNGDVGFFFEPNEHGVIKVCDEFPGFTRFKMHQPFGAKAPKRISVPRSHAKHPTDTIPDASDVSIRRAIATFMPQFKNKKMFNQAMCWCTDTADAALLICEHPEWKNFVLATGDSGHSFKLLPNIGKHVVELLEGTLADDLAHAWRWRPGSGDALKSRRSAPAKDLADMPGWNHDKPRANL
The data set can be described thus: X-ray crystal structure, […] Å. In kind it is binding. Conditions: covalent; bond to Cys343.

Substrate in data set [3]: CC(C)[C@H](NC[C@@]1(O)OC[C@@H](O)[C@@H](O)[C@@H]1O)C(=O)O
Put plainly: H2O2 formation, peroxidase-coupled 4-AA/TOOS spectrophotometric assay. To be noted: oxidase activity, O2 as electron acceptor, 10 mM potassium phosphate pH 7.0, 298 K, 25.0 °C. In kind it is biochemical, Parastagonospora nodorum. The source holds these as a separate data set.

In general, Km refers to the concentration of substrate that gives half-maximal velocity. By Vmax is commonly meant the rate approached at saturating substrate. Consider “PnFPOX (Parastagonospora nodorum SN15; D54A/N56A)”, for which, in data set [1], the Km was found to be 14 ± 1.2 µM, the Vmax is 0.078 µmol/min/mg and the Vmax/Km was determined as 5730 µL/min/mg.

On to `Cc1cc2nc3c(=O)[nH]c(=O)nc-3n(C[C@H](O)[C@H](O)[C@H](O)COP(=O)(O)OP(=O)(O)OC[C@H]3O[C@@H](n4cnc5c(N)ncnc54)[C@H](O)[C@@H]3O)c2cc1C` [FAD], for which, in data set [2], the “X-ray crystal structure, 1.83 Å” value is “A covalent bond is formed between FAD and Cys343 of PnFPOX”.

On to “PnFPOX (Parastagonospora nodorum SN15; D54N/N56A)”, for which the Michaelis constant (Km) in data set [1] was 46 ± 3.7 µM.

B1: PnFPOX (Parastagonospora nodorum SN15) (protein)
chain: MAPSRANTSVIVVGGGGTIGSSTALHLVRSGYTPSNVTVLDAYPIPSSQSAGNDLNKIMGVSLRNPVDLQLALEARQMWNEDELFKKFFHNTGRLDCAHGEKDIADLKSGYQALVDAGLDATNEWLDSEDEILKRMPLLSRDQIKGWKAIFSKDGGWLAAAKAINAVGEYLRDQGVRFGFYGAGSFKAPLLAEGVCIGVETVDGTRYYADKVVLAAGAWSPTLVELHEQCVSKAWVYGHIQLTPEEAARYKNSPVVYNGDVGFFFEPNEHGVIKVCDEFPGFTRFKMHQPFGAKAPKRISVPRSHAKHPTDTIPDASDVSIRRAIATFMPQFKNKKMFNQAMCWCTDTADAALLICEHPEWKNFVLATGDSGHSFKLLPNIGKHVVELLEGTLADDLAHAWRWRPGSGDALKSRRSAPAKDLADMPGWNHDKPRANL
notes: His-tagged, pET22b (NdeI/XhoI), E. coli BL21(DE3); HisTrap purified; 49 kDa on SDS-PAGE
In the case of B1, in data set [3], the Km stood at 359 ± 6.2 µM, the Vmax is 29.9 µmol/min/mg and the Vmax/Km was 83300 µL/min/mg.
